Starred links: 1 amine or outer side, 2 acyl side, 3 side chain; linkers in the order of their positions; H or OH if unused. Positions of bridges follow the written chain, without caps; N, C: chain ends. Residues, ends and D or L forms follow the SMILES beside them. Groups on a side chain read outwards from the residue. *: point of attachment. X1 = C/C(=N/O)C(C)(C)NCCC(CCNC(C)(C)/C(C)=N\O)CCN*; Glutaryl = O=C(CCCC(=O)[*:2])[*:1]; X2 = NC(=O)COCC(=O)NCCOCCOCCOCCN*
How the values were obtained:
endometrial lesions = conditions: rat, in vivo
Text: (§1) A rat surgical model of endometriosis was used, together with immunocompromised mouse and isogenic mouse models—all 3 animal models of endometriosis are as described by Story, L. ILAR J., 45(2) 132-138 (2004).
(§2) The uptake of ^99mTc-maraciclatide was compared with that of ^99mTc-[…]. NC100667 is described by Edwards et al [D. Edwards, Nucl.Med.Biol., 35, 365-375 (2008)]. NC100667 is a negative control peptide, in which the arginine residue of the RGD binding motif of maraciclatide (NC100692) was replaced with an alanine residue. Thus, only one amino acid residue was changed—all other aspects of the agent were otherwise the same.

endometrial lesion = conditions: mouse, in vivo
Text: as §1, §2

endometriosis lesions = tested on: endometriosis lesions; parameters: species or system rat, mouse; conditions: in vivo
Text: as §1, §2

With C/C(=N/O)C(C)(C)NCCC(CCNC(=O)CCCC(=O)NCCCC[C@@H]1NC(=O)CSC[C@@H](C(=O)NCCOCCOCCOCCNC(=O)COCC(N)=O)NC(=O)[C@H](Cc2ccccc2)NC(=O)[C@@H]2CSSC[C@H](NC1=O)C(=O)N[C@@H](CCCNC(=N)N)C(=O)NCC(=O)N[C@@H](CC(=O)O)C(=O)N2)CCNC(C)(C)/C(C)=N\O (stereo partly drawn) [^99mTc-maraciclatide, metal not drawn] ({CH2CO}-K([Glutaryl-X1])CRGDCFC-X2; disulfide 2-6; thioether N-8) the “uptake in endometrial lesions versus control lesions of abdominal fat” value (endometrial lesions) was “higher compared to control lesions of abdominal fat”, the “ratio of endometriotic lesion to blood” value (endometrial lesion) was 4.0 and the “ratio of endometriotic lesion to muscle” value (endometrial lesion) was 8.3. For the same compound, the “retention in ovaries and uterine horns” value (endometrial lesion) was about 35%, the “uptake in endometrial lesion, time course at 1, 2 or 3 weeks post implantation” value (endometrial lesion) was “greatest at one week post uterine horn inoculation” and the “uptake and retention in animal models of endometriosis” value (endometriosis lesions) was “demonstrated in all experimental animal models of endometriosis”.

Source: patent US20250186633A1, “METHODS FOR IMAGING INTEGRIN EXPRESSION AND FOR IMAGING SITES OF ENDOMETRIOSIS” (SERAC HEALTHCARE LTD, priority 2022, published 2025)
